According to US20240150744A1, “ACYL ACTIVATING ENZYME AND A TRANSGENIC CELL, TISSUE, AND ORGANISM COMPRISING SAME” (YEDA RESEARCH AND DEVELOPMENT CO. LTD., priority 2021, published 2024):

Experiment: AAE enzyme assay (acyl-CoA synthetase assay) of purified recombinant HuAAE proteins with an array of substrates
Format: biochemical
Conditions: purified recombinant enzyme from E. coli, UPLC-MS/MS peak area (FIG. 6); for activity towards butyric acid (formation of butyryl CoA): substrate butyric acid
Description: FIG. 6 includes vertical bar graphs showing recombinant enzyme assays of purified H. umbraculigerum acyl activating enzyme (HuAAE) proteins produced in Escherichia coli cells. Peak area is shown. Various alkyl (short-and medium-chain fatty acids) and aromatic (cinnamic and coumaric acids) substrates were used in the enzyme assays.
All AAE genes from H. umbraculigerum were individually cloned into the pET28b vector and expressed in E. coli BL21 (DE3) cells. Bacterial cells were grown in LB medium at 37° C. When cultures reached Absorbance 600=0.6, protein expression was induced with 200 μM of isopropyl-1-thio-β-d-galactopyranoside (IPTG) at 15° C., for 24 h. Bacterial cells were lysed by sonication in 50 mM Tris-HCl pH 7.5, 500 mM NaCl, 1 mM PMSF, 10% glycerol and protease inhibitor cocktail (Sigma Aldrich). An aliquot of whole-cell extract was kept for further analysis. Soluble protein was purified on Ni-NTA agarose beads (Adar Biotech) and eluted with 300 mM imidazole in buffer containing 50 mM NaH2PO4 pH-7.5 and 300 mM NaCl. The whole-cell extract, and the eluted fractions were analyzed by SDS-PAGE stained with InstatBlue.
Acyl-CoA synthetase assays were performed in a 20 μl reaction mix that contained 0.1 μg recombinant AAE, 50 mM HEPES pH 9, 8 mM ATP, 10 mM MgCl2, 0.5 mM CoA and 4 mM sodium hexanoate for 10 min at 40° C. Reactions were terminated with 2 μl of 1 M HCl and stored on ice until analysis. After centrifugation at 15 000 g for 5 min at 4° C., the samples were diluted 1:100 in water and analyzed by UPLC-MS/MS (Stout et al., 2012). injections were performed on a UPLC (Waters) connected to a Triple Quad detector (TQ-S, Waters) in multiple reaction monitoring (MRM) mode. The chromatographic separation was achieved using a similar column as previously described. The mobile phase consisted of an aqueous buffer pH 7.0 (10 mM Ammonium Acetate, 5 mM NH4HCO2, phase A) and acetonitrile (phase B). The flow rate was 0.3 ml min^−1, and the column temperature was kept at 25° C. Compounds were analyzed using a 15 min multistep gradient method: initial conditions were 1% B raised to 35% B until 10.5 min, and then raised to 100% B until 11 min, held at 100% B for 1 min, decreased to 1% B until 12.5 min, and held at 1% B until 15 min for re-equilibration of the system. The instrument was operated in positive mode with a capillary voltage of 3.0 kV, and a cone voltage of 50 V. Metabolite identity was confirmed with authentic standards (Sigma Aldrich). Two different transitions were used for analysis of: acetyl-CoA (810.52>303.30, 27.0V; 810.52>428.25, 24.0V); butyryl-CoA (838.58>331.30, 28.0 V; […]); hexanoyl-CoA (866.65>359.40, 28.0 V; 866.65 >428.25, 26.0 V); octanoyl-CoA (894.65>387.55, 30.0 V; 894.65>428.25, 28.0 V); coumaroyl-CoA (914.59>407.37, 30.0 V; 914.59>428.25, 28.0 V); cinnamoyl-CoA (898.59>391.37, 30.0 V; 898.59>428.25, 28.0 V).
Next, the inventors individually recombinantly expressed six of the eleven AAEs, each in E. coli, purified respective proteins, and examined their activity using array of substrates (acetic acid, butyric acid, hexanoic acid, octanoic acid, cinnamic acid and coumaric acid).

B1: HuAAE3: H. umbraculigerum acyl activating enzyme, recombinantly expressed in E. coli and purified (protein)
chain: MTEEEKNKAESMGIKTYAWSDFLHLGSKNPSELQTPKATDICTIMYTSGTSGDPKGVILTHENATTNIRGVDLFMEQFEDKMTVDDVYISFLPLAHILDRMIEEYFFRSGASVGFYHGDINALKEDLAELKPTFLAGVPRVLEKIHEGVLKGLEEVNPRRRKIFSILYNHKLKYMKAGYKHKYASPLADLLAFRKVKNRLGGRIRLMVSGGAPLSTEIEEFMRVTSCAFVAQGYGLTETCGLATLGFPDEMCMIGTVGSPFVYTELRLEEVSDMGYDPLANPPRGEICVKGKTPFAGYYKNPELTNEVMKDGWFHTGDIGEMQPNGVLKIIDRKKHLIKLSQGEYIALEYLEKVYCITPILEDIWVYGDSFKSSLVAVAVPNKENAEKWADQKGLKVSYSELCTLTQFRDYIQSELKSTAERNKLRGFEHIKAIIVEPRTFEGDQELLTATMKKRRNKLLNRYKEGIDNLYKNLAANKR
In the case of B1, the “activity against acetic acid (formation of acetyl CoA)” value (substrate acetic acid) is reported as “great activity”.

B2: HuAAE2: H. umbraculigerum acyl activating enzyme, recombinantly expressed in E. coli and purified (protein)
chain: MDALRKPNSANSSPLTPIGFLERAAVVFANSPSIVYNNLIYTWSDTFHRCLRLASSISRLAIRKGDVVSVLAPNIPAIYELHFGITMTGAIINTINTRLDARTISILLCHSESKLVFVDYQLTRLIREAVSLMPDACVPPQLVLIVDDGHNLSLLSDQFINTYEAMVETGDPGFNWVRPDSDWDPLTLNYTSGTTSSPKGVVNSHRGSFIVAFDSLLEWHVPKQPIMLWTLPMFHANGWSFVWGMAAVGGTNVCLRKFDATIIYDTIRNHHVTHMCGAPVVLNMLSEGKPLEHTVHIMTAGAPPPAAVLLRTESLGFEVTHGFGMTETGGLVVSCSWKKEWNRLPVTEKARLKARQGVRTLGMTEVDIVDPESGVSVTRDGLTQGELVLRGGSIMLGYLKDPETTNKSVKNGWFYTGDVAVMHPDGYLEIKDRSKDVIISGGENISSVEVESILYQHPAINEAAVVGRPDEFWGESPCAFVSLKDDNGKVAVPTADEIMKFCKGKLPGYMVPKSVVFKKDLPKTSTGKIQKYVLRKLAKDLGFAVKSRI
In the case of B2, the “activity towards butyric acid (formation of butyryl CoA)” value is reported as “efficiently produced butyryl CoA”.

B3: HuAAE6: H. umbraculigerum acyl activating enzyme, recombinantly expressed in E. coli and purified; similar to long-chain acyl-CoA synthetases (protein)
chain: MSVYTVKVEDSRAASGETPSAGPVYRCIYAKDALMELPPGYESPWDFFSESVKRNPKNPALGRRQVIDGKAGGYSWLSYQEAYNSALRIASAIRSRSVNPGDRCGIYGPNCPEWIISMEACNSNGITYVPLYDTLGANAVEYIINHAEISLVFVQENKLSAILSCLPNCSSNLKTIVSFGKFSESQKNEAMEHGVDCFSWEEFSSMGNLEDELPAKNKTDICTIMYTSGTTGEPKGVVLSNRAFMSEVLSMHELLIETDKPGTEEDTYFSFLPLAHIFDQIMETYFIYSGASIGFWQGDIRYLIEDLLVLQPTIFCGVPRVYDRIYTGIMAKISTGGAIRKALFDFAYNYKLRNLEKGIQQDKSAPLLDKLVFDKIKQGFGGRVRLMLSGAAPLPKHVEEFLRVTCCTVLSQGYGLTESCGGCFTSIANVYSMIGTVGVPMTTIEARLESVPEMGYDALSSVPCGEICLRGNTLFSGYHKRDDLTDAVLVDGWFHTGDIGEWQADGAMKIIDRKKNIFKLSQGEYVAVESIESTYSRCPLVTSIWVYGNSFESFLVAVVVPDRVAVEEFAAKNNESGDYASLCKNPNVRKYVLEELNAEAQCNKLRGFEMLKAVHLDPVPFDFERDLITPTFKLKRQQLLKYYKDCVEQLYAEAKTSKK
For B3, the “activity towards cinnamic acid (formation of cinnamoyl CoA)” value (substrate cinnamic acid) was “reacted”, the “activity towards coumaric acid (formation of coumaroyl CoA)” value (substrate coumaric acid) was “reacted” and the “activity towards hexanoic acid” value (substrate hexanoic acid) was “very high activity”. For the same molecule, the “activity towards octanoic acid” value (substrate octanoic acid) was “very high activity”.

B4: HuAAE4: H. umbraculigerum acyl activating enzyme, recombinantly expressed in E. coli and purified; great homology to CsAAE1 (protein)
chain: MVYKSLNSISISDIVNLGISPETATQLHQKLTEIIQIYGFDAPQTWTQISTRILHPDLPFCFHQMMYYGCYVDFGPDPPAWSPDPKDAKLTNIGSLLERRGKEFLGPSYKDPISSYSALQEFSALNLEVFWKTILDEMNITFSVPPKRILVDDLSKESQLLHPGGRWLPGAYVNPARNCLSLSSKRRLSDIAVIWRDEGNDDMPVNKMTFQQLRSEVWLVAYALDTLGVEKGSAIAIDMPMDVKSVVIYLAIVLAGYVVVSIADSFAAGEISTRLVLSKAKAIFTQDLIIRGDRSHPLYSRVVDAQSPLAIVIPTRGSSFSIKLRDGDISWHDFLERANTYRNVEFVAVERPVEAFSNILFSSGTTGEPKAIPWTLATPFKAGADAWCHMDVHKGDVVAWPTNLGWMMGPWLIYASLLNGGSLALYNGSPLTSGFAKFVQDAKVTLLGVIPSIVRAWRTNNSTAGFDWSTIRCFGSTGEASNTDECLWLMGRAHYKPVIEYCGGTEIGGGFITGSLLQPQCLSAFSTPSLGCKLLILGEDGIPIPQNAPGIGELALNPLMFGASSTLLNANHYDVYFKGMPSWNGKVLRRHGDVFERTSKGYYRAHGRADDTMNLGGIKVSSVEIERVCNSIDDRILETAAIGVTPSGGGPERLVIVVAFKDGSGSKPDLIKLKVTLNSALQKNLNPLFKVSDVVPFPSLPRTATNKVMRRVLRQQLTQIGQNSKL
With B4 the “activity towards butyric acid (formation of butyryl CoA)” value was “efficiently produced butyryl CoA”.
